These results are taken from the DeepSol protein solubility set.

The data set in a line: soluble on expression in E. coli; label from the status in PepcDB or PDB records.
On to “MGSDKIHHHHHHMSIEQLADLTQPQRDRLAFVELRVRFIGEIRRQDLVSRFGIQSAAASRDLALYKELVPGNIDYDSKGKSYVLGPDFRPLFEFPPERVLSWLTQGFGDGEPMQLKAWVASESPSRLARPDLTVLASVTRAIHQGCPLAVEYHSISSGKANRQIVPFALIDDGQRWLVRAFDRESQQFRDFVITRIRNPQVLKGENPAPHEASDQDIQWTRILELDLVPHPNRPHPEISEMDYSMERGVWKMKLRAAMAGYILCKLRVDCSPTHKLNGSEHRLWLRNHLALYGVRSAVLAPGYESPEPVGQEQDGD”, for which the “soluble on expression in E. coli” value is recorded as “not soluble”. The result for “MESVKCFDMITAFFDLSDSVHVVRKNGGLAFGKTWLGNFFVLVREVKILRATTEKFSLVNLRKLEPHSGQFRNQIREESAYRHPFLRIVVKVILAKRLRPLPYLTSKSK” reads “not soluble”; that for “SGTPNDQAVLQAIFNPDTPFGDVVGLDLEEAEEGDEDGVFPQAQLEHSKALELQGVRAAEAGDLHTALEKFGQAISLLPDRASAYNNRAQARRLQGDVAGALEDLERAVTLSGGRGRAARQSFVQSGLLARFQGRDDDARRDFEKAARLGSPFARRQLVLLNPYAALCNRMLADMMGQLRAPSNGR”, “soluble”. Turning to “MGSDKIHHHHHHMKMLVGKIPSELLAKILEKLKPGDKVIVGPKVGIDATAIDFGDYVLVASTDPITGTEEKIGFYAVNINANDVATFGARPKWFLVTILLPEGSEFNDVITIMDEVREVAEGMGISIVGGHTEVTPGLKKPIVVGTMLGEVEKENLVVPNPRPGDAIILTKGAGIEGTSIIAHEREEELKGVFGSNFVERAKAFINEISIVREALLSREFATAMHDPTEGGIANGLHEMADINGLGFRIFANKVIIREETRKICHFYDLDPLALISSGALLISTPRDHAKFLIERLLSHGIQASIIGEFLAEKKRVIIENGAERPLKRPESDELWKVV”, the “soluble on expression in E. coli” value is reported as “not soluble”. As to “CDAGRAKDKANEMMQGGNSLFGAMEGGTKEQVVLDMIDLGEHDAKTLLECEYETLGIHVSGNPLDEFKEEIKGFKNLVKSIDIEELEIGS”, the “soluble on expression in E. coli” value is reported as “not soluble”. Under “MDAYEIIQYIGDAKKQTLVKVTLKGQLKEVTFPETIKVFNNCKTGTLFGDWADVKPFLEANKEKIEDYVVENDARNSAIPFLDLKDINARIEPGALIREKVEIGDQAVIMMGAILNIGAVVGAGTMIDMGAVLGGRATVGKHCHIGAGTVLAGVIEPPSAAPVVIENEVVIGANAVVLEGVRVGEGAVVAAGAVVVEDVPAHTVVAGVPAKVIKQIDDKTKSKTEILEELRKL” stands “soluble”. As for “MARFSGKSVIITGSSNGIGRSAAVIFAKEGAQVTITGRNEDRLEETKQQILKAGVPAEKINAVVADVTEASGQDDIINTTLAKFGKIDILVNNAGANLADGTANTDQPVELYQKTFKLNFQAVIEMTQKTKEHLIKTKGEIVNVSSIVAGPQAHSGYPYYACAKAALDQYTRCTAIDLIQHGVRVNSVSPGAVATGFMGAMGLPETASDKLYSFIGSRKECIPVGHCGKPEEIANIIVFLADRNLSSYIIGQSIVADGGSTLVMGMQTHDLMSVLSQ”, the “soluble on expression in E. coli” value is on record as “soluble”. The result for “MGSDKIHHHHHHLRILNTAATGVRAQQTALDVLGNNMSNVNTPGYKAQRVNFAEALAAEMRPAEREFNGQPVGERIDVGAGVIYPTIDTDYRQGIIRETENPFDLAIDGEGFFPVRTANGESRYTRVGNFELDSQGKLVNSDGYILEVKIPADAMDLYVDETGNITGFIDDEERVLGRVVVNDPEGEGYPVGPIDMDELGRPLDWNGDILPTAFAVPEGAEDVQISTEGILSATIDGSRQTLGQINIITFANPEGLVRDGDNLYFAPDAAGVTGDELVGTPGSQVEERTLGKLKTQSLEQSNVNLASAMTEMIQVQRAYQLNARMITNGDQMWSMANSLRR” reads “not soluble”; that for “MSLTGRAVIGVIGNAHLVDNRFAVQHVGERNLRAVAEVAGALPLMFGGSSEFAQIEDLLEVVDGILLTGGRANVHPTYFKTAPNPRHEPYDQPRDELALALVRTCVERGVPLFGICRGFQEMNVAYGGSLHPEIRELPGRMNHRMPRLENGEIHPDPTVVFADRHDVQLTSDGVFARLLGRDLIRVNSLHGQGILEPGPRIVIEGVAEDGTIEAIRIADAPGFALGVQWHAEYDPQVNPINRALFVAFGEAVSAYRTARKRPAALRRSEGHHHHHH”, “soluble”. In the case of “MMRGSHHHHHTDPISYIIRKADSVNKALDSAVPLREPLKIHEAMRYSLLAGGKRVRPVLCIAACELVGGEESLAMPAACAVEMIHTMSLIHDDVYGEDVAVLAGDALLSFAFEHLASATSSEVSPARVVRAVGELAKAIGTEGLVAGQVVDISNVGLEHLKFIHLHKTAALLEASAVLGGIIGGGSDEEIERLRKFARCIGLLFQVVDDILDVTIADKLTYPKLMGLEKSREFAEKLNTEARDQLLGFDSDKVAPLLALANYIANRQN”, the “soluble on expression in E. coli” value is “soluble”.

In the case of “MGSDKIHHHHHHMKLCSVTKIWDKSAHNAFTDLALYRGKLYCVFREASAHVSPDGALRILCTDNDGQDWHSVALIEADFADLRDGKLVIEGDSLFLFGGAAMHEGKGEGMRSYCWQSDDGIHWSAPRALVKEREWLWRITPHKGYFYGIAYYCHEHDGYAALYKSDANTDFYPLVEKLSQAGYVNESGLVFDEEDKAICLLRRDPLWLTDERALLGESAPPYTQWHWQTANCRVGGPVTFLYQGQLYGVVRLYDGRVRTALVAIDRQSAQIAELLTLPSGGDTSYAGVVLSDNILMVSYYSSHEGDCAIYFAKIAL”, the “soluble on expression in E. coli” value is “not soluble”. Under “MKIYTRTGDAGETGLYGAERVVKAHPRVEAYGTVDEANSAIGLARSLLPGKHRDLHDLLERLQNALFDLGADLATRMGSPYEKNIARMDAEDVRALEEAIDRYQEESPPFQGFILPGGHPAAAALHLARTVVRRAERKAVALSREEPVNPEVIRYLNRLSDLLFVLARVVNAREGIKEEGWLVKKRR” stands “soluble”; under “MSYVIDRRLNGKNKSTVNRQRFLRRYREHIKKAVEEAVSRRSITDMEHGEQISIPGRDIDEPVLHHGRGGRQTVVHPGNKEFTAGEHIARPSGGGGGRGGGKASNSGEGMDDFVFQITQEEFLDFMFEDLELPNLVKRHITGTDTFKTVRAGISNDGNPSRINIVRTLRSAHARRIALSGGSRAKLRAALKELERIKREEPDNLGDIQELELEIAKLRARIDRVPFLDTFDLKYNLLVKQPNPTSKAVMFCLMDVSGSMTQATKDIAKRFFILLYLFLKRNYEKIEVVFIRHHTSAREVDEEEFFYSRETGGTIVSSALKMMQEIMAERYPTHEWNIYAAQASDGDNWNDDSPVCRDILLKQIMPFVQYYTYVEITPREHQALWFEYERVREAFEDSFAQQQIVSASDIYPVFRELFQRRLVAKLAAALEHHHHHH”, “not soluble”. The result for “MGSDKIHHHHHHMRIAIVTHVVRHNDGQGRVNYEIARAALAENYEVTLVASHVAPELLADPRVRWVPVKVGRFWPSNLVKQQVFALKSAWWLRAHRGEYDVLHVNGFISWISADVNTAHFVHGGWFKSPYYPFGLTKGMWSAYQYVYTRVNTALERWAYRRSRAITAVSQKVADEIAGLGIDSRKISVIYNGVDGSAFAGAQPDRAAFKLPDDAFLLLFVGDLRTPRKNLGTVLKALTKLPANVHLAVAGYLPGSPYPDEARALGIDSRVHFLGLVKNMPTLMSSVDAYVFPSRYEAMSLSLLEAMAAGLPVVTARTAGGAEIITRECGIVLEDPDDPAALAQAIGSLAASRDTCRAMGDAARELMTRFGWAHMGAQYVALYRRIGQPTQPSAFERVEHAVTQEQS” reads “not soluble”.

For the sequence “DVQLQESGGGLVQAGGSLRLSCAASGATGSTYDMGWFRQAPGKERESVAAINWGSAGTYYASSVRGRFTISRDNAKKTVYLQMNSLKPEDTAVYTCGAGRIGRSVFNLRRESWVTWWGQGTQVTVSS”, the “soluble on expression in E. coli” value is on record as “soluble”. The result for “MGSDKIHHHHHHMSFEQDSTPRGNPVSCESARETNEFSPGKTCIKLMNYRRLTPSMSLLLVFEAAARHESYTRAADELSLSQSAISRQVQTLEDQLGVSLFRREGRSVKLTEVGRRYFVELSGALGRIRGATLQAMSHQAGAGTLRLATLPTFGSKWLLPHLHDFYAAHPGVTVHLHSRIGGIDFHTDDLDAAITVGSGDWPGLHAHRLYNEFLIAIASPDAAGRRKAGPRAPAWAVGQTLLGVTSNQHAWAEWFSHFGLDHREMRIGPSFELTSHLIQAVRAGMGIGLVPKVLVEDELSRNELVSIGDAITSQRSYYLVYPPENDTLPSLVAFREWLLKSC” reads “not soluble”; that for “MTIYDINFAELYQQHLIACNHYNLPPIKWDKKAVKMAENLVGKPSAYNQQLLQAMNVQTDEAVLDIGCGPGTFAVPLAQQGSTVYALDYSNGMLDCLAQFKQKFGLHHLTTFHKSWADNWDDVPQADVVLASRSTLVDDLDDMIEKLCAKAKKRVFLTSVTQRHFLDEGVFEAIGREDIGFPTYIYLLNRLYQKGIQANLNFIETESGCFQGESYEDLLASVEFSLGELSEKEKQGLKAFYDRKQANNEPISHGQKKWALIWWNVDRILEHHHHHH”, “soluble”; that for “MSLDDRSIRAEERSDKLMNLKIKNITCSIKKVPLKRPFITALHKVTEIEGLKIVVELSDGQTGTGTATPNEKVTGDTLQSSLDIVNQVIKPALINQDFKNWNKLLTTLQTCIVHNTAAKAAMDIALYQLKAKENNESLVNLLGSEKGKLTTDYTISIGSDDHMVSEAKSLVKDGFTAIKIKLGNNSVSHDIKTIQKISKAVGPDISLRIDCNQAWNYKDTLKASRIWAQDNLNIDFIEQPVLKDAISDLTLLSENSPYPIMADESVASYQDAINLIKHHACDYINIKLMKTGGLSEAIKINDLAQACGIKTMVGCMIEPVESIAAAAAFAVANKNVKFIDLDSIFMATQDPDLGKYLKIKNNEIILKDEGHHHHHH”, “soluble”.

Regarding “GSHADLLRKNAEVTKQVSMARQAQVDLEREKKELEDSLERISDQGQRKTQEQLEVLESLKQELATSQRELQVLQGSLETSAQSEANWAAEFAELEKERDSLVSGAAH”, the “soluble on expression in E. coli” value was “soluble”. Under “MSLTGMLKRKVIVVSGVGPGLGTTLAHRCARDGADLVLAARSAERLDDVAKQIIDTGRRAVAVRTDITDDDDVSNLVQATLAAYGKADVLINNAFRVPSMKPLAGTTFEHIRDAIELSALGTLRLIQAFTPALAQSHGAIVNVNSMVIRHSQPKYGTYKMAKSVLLAMSHSLATELGEQGIRVNSVAPGYIWGDTLKSYFDHQAGKYGTTVDQIYQATAANSDLKRLPTEDEVASAILFLASDLASGITGQTLDVNCGEYHTEGHHHHHH” stands “soluble”. Regarding “MSLKAINFINWKYIGLTGCLVASLLTACGDDETGPEVVTPLEPKLEIVNEASTFSFSSAGNSAQVLTFNANQDWHIVLDDSEGVDNSWVVLFEREGTAGEGNKVWVAAAENVEPDARRANFSLVSGGFKYDFVIYQAQKDAVVITDPKAYENLDAGEHIISVEFGINTGEYKTSFLYSGDTGWIMPTDERPAGEPETRAMENHTLYFKVLPNQKFDIRRGTIEISSKDNDNVKATMNIFQTGLPKPVITVDNKEMFTNLASKEDSILLKYKATNTNGPRDLTIDIDKNDQDWISFKPAIDAKGDSTFLVSVKENTGGERTATIALCAAADKKVREEFIVTQAQASDVELVITNKNDFRTSLDKLGSAATVKYSVQSTLTDPKNEILVDIVYPEESGYTAENGWLHMANNSMPERVIFTYDVNKVLRERQATVYIYRKGYENKKDYMVIRQAAATQIEIPAPGGLTNVLQSLIDDEIYKDWESITSLELKGRLNDTDLNLLKNMMTAGKGYNLKTLDMTEVENETLKNGVFNGCNLLENISFPTGLQYVPREACRNCTKLRTVVVNEGPTYIGRHAFGNSVVNEAWFPSTMTYVYGYIFDNVTALKTLHLKSLPFQCKEVARSDADEGATQPTTWCTVFKTWPSTVYVPMEYLEYYKNPDPKHVVSMHFQDLLNTLTSESEEWTKGPKVQQPYLKSNSALKSNFTWGSSATTIMGESEGHHHHHH”, the “soluble on expression in E. coli” value is “soluble”.
